Kd and Km, cleavage of FITC-labelled β-casein (steady state kinetics) data for two molecules are collected here from article PMC3573033, “Allosteric Regulation of Serine Protease HtrA2 through Novel Non-Canonical Substrate Binding Pocket” (PLoS ONE, 2013).

For assay [1], the target named is T1, HtrA2 (High temperature requirement protease A2), mature (Δ133 HtrA2), wild type (UniProt O43464 134-458).
T1 construct: HtrA2 (High temperature requirement protease A2), mature form Δ133, 325 amino acids; numbers count on: the mature protein; source: E. coli BL21 (DE3) pLysS, purified (nickel-IDA, gel permeation chromatography)
T1 sequence (looked up): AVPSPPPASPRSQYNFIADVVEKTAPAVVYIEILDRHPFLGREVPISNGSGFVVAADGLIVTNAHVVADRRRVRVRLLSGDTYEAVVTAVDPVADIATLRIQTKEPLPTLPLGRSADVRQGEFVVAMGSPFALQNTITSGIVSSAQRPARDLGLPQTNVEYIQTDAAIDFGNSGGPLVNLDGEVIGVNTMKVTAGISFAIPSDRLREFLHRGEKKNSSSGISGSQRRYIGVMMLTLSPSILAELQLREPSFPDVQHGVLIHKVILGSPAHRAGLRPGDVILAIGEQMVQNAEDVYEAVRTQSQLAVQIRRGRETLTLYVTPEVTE
Description: ITC; MicroCal ITC200; 200 µl of wild type or N216A/S219A HtrA2 (20 to 50 µM) in the cell, titrated with 1.5 µl injections of 0.4 mM activator peptide; 20 mM Na2HPO4/NaH2PO4, 100 mM NaCl, pH 7.8; 25°C; one site-binding model. The following applies: both partners purified.

In assay [2] the target is HtrA2 (High temperature requirement protease A2), mature (Δ133 HtrA2), wild type (UniProt O43464).
Assay [3] concerns the target HtrA2 N-SPD (N-terminal and serine protease domains, residues 1-210).

By Kd is commonly meant the equilibrium constant for the complex coming apart.

As to SEHRRHFPNCFFV [13mer activating peptide SEHRRHFPNCFFV], the affinity in assay [1], expressed as Kd, was 7.5 µM.

B1: FITC-labelled β-casein (natural protein)
chain: RELEELNVPGEIVESLSSSEESITRINKKIEKFQSEEQQQTEDELQDKIHPFAQTQSLVYPFPGPIPNSLPQNIPPLTQTPVVVPPFLQPEVMGVSKVKEAMAPKHKEMPFPKYPVEPFTESQSLTLTDVENLHLPLPLLQSWMHQPHQPLPPTVMFPPQSVLSLSQSKVLPVPQKAVPYPQRDMPIQAFLLYQEPVLGPVRGPFPIIV
modifications: FITC label
Take B1: the Km, cleavage of FITC-labelled β-casein (steady state kinetics) amounted to 4.59 µM in assay [2] and 3.02 µM in assay [3].
